From the supplement of paper PMC10567573

B1: HNF4A (parent)
chain: RFSRQCVVDKDKRNQCRYCRLKKC

Variants of: B1
Test: protein stability index of a GFP-peptide fusion (GPS, HEK-293T) (PSI 1-6); higher = more stable
Conditions: c terminus: a fixed tail appended
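Note: lentivirally expressed fusions sorted by FACS into six bins by GFP to DsRed ratio, PSI derived from sequencing read proportions per bin multiplied by bin number.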

Going from RFSRQCVVDKFKRNQCRYCRLKKC [D11F] to RFSRQCVVDKGKRNQCRYCRLKKC [D11G], the protein stability index falls from 2.63 to 2.55.

Compared with RFSRQCVVDKHKRNQCRYCRLKKC [D11H], RFSRQCVVDKIKRNQCRYCRLKKC [D11I] is lower in protein stability index: 2.97 for the first, 2.41 for the second.

First: RFSRQCVVDKKKRNQCRYCRLKKC [D11K]
Second: RFSRQCVVDKLKRNQCRYCRLKKC [D11L]
The protein stability index of the first is higher: 2.4 for the first, 2.21 for the second.

Going from RFSRQCVVDKMKRNQCRYCRLKKC [D11M] to RFSRQCVVDKNKRNQCRYCRLKKC [D11N], the protein stability index falls from 2.65 to 2.4.

Compared with RFSRQCVVDKPKRNQCRYCRLKKC [D11P], RFSRQCVVDKQKRNQCRYCRLKKC [D11Q] is lower in protein stability index: 2.9 for the first, 2.63 for the second.

First: RFSRQCVVDKRKRNQCRYCRLKKC [D11R]
Second: RFSRQCVVDKSKRNQCRYCRLKKC [D11S]
The protein stability index of the first is higher: 2.65 for the first, 2.04 for the second.

Compared with RFSRQCVVDKTKRNQCRYCRLKKC [D11T], RFSRQCVVDKVKRNQCRYCRLKKC [D11V] is higher in protein stability index: 2.32 for the first, 2.37 for the second.

First: RFSRQCVVDKYKRNQCRYCRLKKC [D11Y]
Second: RFSRQCVVDKDARNQCRYCRLKKC [K12A]
The protein stability index of the first is higher: 2.45 for the first, 1.51 for the second.

First: RFSRQCVVDKDCRNQCRYCRLKKC [K12C]
Second: RFSRQCVVDKDDRNQCRYCRLKKC [K12D]
The protein stability index of the first is lower: 2.07 for the first, 2.13 for the second.

Compared with RFSRQCVVDKDFRNQCRYCRLKKC [K12F], RFSRQCVVDKDGRNQCRYCRLKKC [K12G] is higher in protein stability index: 2.25 for the first, 2.76 for the second.

Compared with RFSRQCVVDKDHRNQCRYCRLKKC [K12H], RFSRQCVVDKDIRNQCRYCRLKKC [K12I] is lower in protein stability index: 2.93 for the first, 2.54 for the second.

Compared with RFSRQCVVDKDLRNQCRYCRLKKC [K12L], RFSRQCVVDKDMRNQCRYCRLKKC [K12M] is higher in protein stability index: 1.91 for the first, 1.97 for the second.

Compared with RFSRQCVVDKDNRNQCRYCRLKKC [K12N], RFSRQCVVDKDPRNQCRYCRLKKC [K12P] is higher in protein stability index: 2.41 for the first, 2.76 for the second.

Going from RFSRQCVVDKDQRNQCRYCRLKKC [K12Q] to RFSRQCVVDKDSRNQCRYCRLKKC [K12S], the protein stability index falls from 2.52 to 2.

Compared with RFSRQCVVDKDTRNQCRYCRLKKC [K12T], RFSRQCVVDKDVRNQCRYCRLKKC [K12V] is lower in protein stability index: 2.85 for the first, 1.99 for the second.

Compared with RFSRQCVVDKDWRNQCRYCRLKKC [K12W], RFSRQCVVDKDYRNQCRYCRLKKC [K12Y] is lower in protein stability index: 2.28 for the first, 2.25 for the second.

Compared with RFSRQCVVDKDKANQCRYCRLKKC [R13A], RFSRQCVVDKDKCNQCRYCRLKKC [R13C] is higher in protein stability index: 2.11 for the first, 3.06 for the second.

First: RFSRQCVVDKDKDNQCRYCRLKKC [R13D]
Second: RFSRQCVVDKDKENQCRYCRLKKC [R13E]
The protein stability index of the first is higher: 3.2 for the first, 2.02 for the second.

Going from RFSRQCVVDKDKFNQCRYCRLKKC [R13F] to RFSRQCVVDKDKGNQCRYCRLKKC [R13G], the protein stability index falls from 2.56 to 2.21.

First: RFSRQCVVDKDKHNQCRYCRLKKC [R13H]
Second: RFSRQCVVDKDKINQCRYCRLKKC [R13I]
The protein stability index of the first is higher: 2.98 for the first, 2.38 for the second.

First: RFSRQCVVDKDKKNQCRYCRLKKC [R13K]
Second: RFSRQCVVDKDKLNQCRYCRLKKC [R13L]
The protein stability index of the first is higher: 2.4 for the first, 2.22 for the second.

First: RFSRQCVVDKDKMNQCRYCRLKKC [R13M]
Second: RFSRQCVVDKDKNNQCRYCRLKKC [R13N]
The protein stability index of the first is lower: 3.02 for the first, 3.03 for the second.

Compared with RFSRQCVVDKDKPNQCRYCRLKKC [R13P], RFSRQCVVDKDKQNQCRYCRLKKC [R13Q] is higher in protein stability index: 1.84 for the first, 2.83 for the second.

Going from RFSRQCVVDKDKSNQCRYCRLKKC [R13S] to RFSRQCVVDKDKTNQCRYCRLKKC [R13T], the protein stability index rises from 2.65 to 2.99.

Going from RFSRQCVVDKDKVNQCRYCRLKKC [R13V] to RFSRQCVVDKDKWNQCRYCRLKKC [R13W], the protein stability index falls from 2.7 to 1.93.

Compared with RFSRQCVVDKDKYNQCRYCRLKKC [R13Y], RFSRQCVVDKDKRAQCRYCRLKKC [N14A] is lower in protein stability index: 2.76 for the first, 1.5 for the second.

Going from RFSRQCVVDKDKRCQCRYCRLKKC [N14C] to RFSRQCVVDKDKRDQCRYCRLKKC [N14D], the protein stability index falls from 3.46 to 2.24.

Going from RFSRQCVVDKDKREQCRYCRLKKC [N14E] to RFSRQCVVDKDKRFQCRYCRLKKC [N14F], the protein stability index falls from 2.95 to 2.16.

First: RFSRQCVVDKDKRGQCRYCRLKKC [N14G]
Second: RFSRQCVVDKDKRHQCRYCRLKKC [N14H]
The protein stability index of the first is lower: 2.57 for the first, 3.45 for the second.

Compared with RFSRQCVVDKDKRIQCRYCRLKKC [N14I], RFSRQCVVDKDKRKQCRYCRLKKC [N14K] is lower in protein stability index: 2.39 for the first, 2.23 for the second.

Compared with RFSRQCVVDKDKRLQCRYCRLKKC [N14L], RFSRQCVVDKDKRMQCRYCRLKKC [N14M] is lower in protein stability index: 2.87 for the first, 1.98 for the second.

First: RFSRQCVVDKDKRPQCRYCRLKKC [N14P]
Second: RFSRQCVVDKDKRQQCRYCRLKKC [N14Q]
The protein stability index of the first is higher: 2.72 for the first, 2.18 for the second.

First: RFSRQCVVDKDKRSQCRYCRLKKC [N14S]
Second: RFSRQCVVDKDKRTQCRYCRLKKC [N14T]
The protein stability index of the first is higher: 2.96 for the first, 2.31 for the second.

Going from RFSRQCVVDKDKRVQCRYCRLKKC [N14V] to RFSRQCVVDKDKRWQCRYCRLKKC [N14W], the protein stability index falls from 2.6 to 2.27.

Going from RFSRQCVVDKDKRYQCRYCRLKKC [N14Y] to RFSRQCVVDKDKRNACRYCRLKKC [Q15A], the protein stability index falls from 3.62 to 2.47.

Going from RFSRQCVVDKDKRNCCRYCRLKKC [Q15C] to RFSRQCVVDKDKRNDCRYCRLKKC [Q15D], the protein stability index rises from 2.8 to 2.89.

Compared with RFSRQCVVDKDKRNECRYCRLKKC [Q15E], RFSRQCVVDKDKRNFCRYCRLKKC [Q15F] is lower in protein stability index: 2.34 for the first, 2.12 for the second.

Going from RFSRQCVVDKDKRNGCRYCRLKKC [Q15G] to RFSRQCVVDKDKRNHCRYCRLKKC [Q15H], the protein stability index falls from 2.37 to 1.96.

Compared with RFSRQCVVDKDKRNICRYCRLKKC [Q15I], RFSRQCVVDKDKRNKCRYCRLKKC [Q15K] is higher in protein stability index: 2.33 for the first, 2.85 for the second.

First: RFSRQCVVDKDKRNLCRYCRLKKC [Q15L]
Second: RFSRQCVVDKDKRNMCRYCRLKKC [Q15M]
The protein stability index of the first is higher: 2.78 for the first, 2.48 for the second.

Compared with RFSRQCVVDKDKRNPCRYCRLKKC [Q15P], RFSRQCVVDKDKRNRCRYCRLKKC [Q15R] is higher in protein stability index: 2.21 for the first, 2.73 for the second.

First: RFSRQCVVDKDKRNSCRYCRLKKC [Q15S]
Second: RFSRQCVVDKDKRNTCRYCRLKKC [Q15T]
The protein stability index of the first is higher: 2.79 for the first, 2.68 for the second.

First: RFSRQCVVDKDKRNVCRYCRLKKC [Q15V]
Second: RFSRQCVVDKDKRNYCRYCRLKKC [Q15Y]
The protein stability index of the first is higher: 2.52 for the first, 2.48 for the second.

First: RFSRQCVVDKDKRNQARYCRLKKC [C16A]
Second: RFSRQCVVDKDKRNQERYCRLKKC [C16E]
The protein stability index of the first is lower: 2.56 for the first, 4.05 for the second.

Compared with RFSRQCVVDKDKRNQFRYCRLKKC [C16F], RFSRQCVVDKDKRNQGRYCRLKKC [C16G] is lower in protein stability index: 2.97 for the first, 2.61 for the second.

Compared with RFSRQCVVDKDKRNQHRYCRLKKC [C16H], RFSRQCVVDKDKRNQIRYCRLKKC [C16I] is lower in protein stability index: 3.9 for the first, 2.93 for the second.

Going from RFSRQCVVDKDKRNQKRYCRLKKC [C16K] to RFSRQCVVDKDKRNQLRYCRLKKC [C16L], the protein stability index falls from 3.1 to 2.92.
